# Measured values reported in patent publication US20170218091A1 (AbbVie / Abbott, published 2017).
# Target: T1, Human recombinant TNFα (rhTNFα) (human, UniProt P01375 77-233)
# T1 construct: Soluble recombinant cytokine added to L929 cells; also called huTNFα; human TNF
# Test: SPR (BIAcore); antibody captured on a goat anti-huIgG Fc surface, huTNF injected at 25 nM
# T1 sequence (P01375 77-233 limits assumed): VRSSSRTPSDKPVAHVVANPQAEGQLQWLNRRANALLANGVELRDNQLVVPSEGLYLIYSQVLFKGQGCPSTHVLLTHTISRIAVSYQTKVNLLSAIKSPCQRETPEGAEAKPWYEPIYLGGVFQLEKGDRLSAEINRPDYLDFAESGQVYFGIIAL
binder,measurement,value
"AB441 (antibody, V domains shown) VH: EVQLVQSGAEVKKPGASVKVSCKASGYTFANYGIIWVRQAPGQGLEWMGWINTYTGKPTYAQKFQGRVTMTTDTSTSTAYMELSSLRSEDTAVYYCARKLFTTMDVTDNAMDYWGQGTTVTVSS VL: DIQMTQSPSSLSASVGDRVTITCRASQDISQYLNWYQQKPGKAPKLLIYYTSRLQSGVPSRFSGSGSGTDFTLTISSLQPEDFATYFCQQGNTWPPTFGQGTKLEIKR",Stoichiometry,2
